Test results reported in patent publication US20180021429A1, “ANTICANCER AGENTS OR ANTIMETASTATIC AGENTS USING FSTL1 AND COMBINATION DRUG THEREOF” (PHARMA FOODS INTERNATIONAL CO., LTD., priority 2015, published 2018).

Columns and labels:
FSTL1 [1] = biological target: T1, FSTL1 (Homo sapiens, UniProt Q12841); assay: Biacore T-200 affinity of mouse chimeric antibodies for human FSTL1 (Example 33); type: binding
T1 sequence (Q12841 21-308): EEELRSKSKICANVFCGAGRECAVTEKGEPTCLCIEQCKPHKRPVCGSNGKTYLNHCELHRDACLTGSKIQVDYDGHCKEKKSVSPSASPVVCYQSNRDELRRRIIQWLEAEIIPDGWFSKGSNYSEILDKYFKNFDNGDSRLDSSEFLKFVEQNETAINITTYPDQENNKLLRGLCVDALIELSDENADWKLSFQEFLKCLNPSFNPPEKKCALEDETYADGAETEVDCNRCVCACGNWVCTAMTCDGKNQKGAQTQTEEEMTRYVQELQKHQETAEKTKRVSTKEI
Protocol: (§1) The mouse chimeric antibodies were immobilized onto Sensor Chip CM5 (GE Healthcare Japan Corp., BR-1005-30) using Mouse Antibody Capture Kit (GE Healthcare Japan Corp., BR-1008-38), and their affinity for human FSTL1 was calculated using Biacore T-200 (GE Healthcare Japan Corp.).
First, the exhaustive activity comparison of the obtained antibodies was conducted with the human FSTL1 concentration fixed to 10 μg/ml (Table 33-1, FIG. 122).
Next, the KD values of clone #6-55, #7-34, and #13 presumed to have high affinity in FIG. 122 were calculated with the antigen concentration adjusted to 0 to 20 μg/ml (Table 35-2).

[2] = test system: GFP+F10-snail+ tumor cells; assay: In vivo drug efficacy of each anti-FSTL1 antibody clone, GFP+F10-snail+ tumor model (Example 32); set-up: species or system mouse
Protocol: (§2) • Day 0: transplantation of GFP+F10-snail+ tumor cells (3×10^5 cells subcutaneously & 2×10^4 cells intravenously) • Day 4: intraperitoneal administration of the antibody (first dose, 10 mg/kg) • Day 7: intraperitoneal administration of the antibody (second dose, 10 mg/kg)
(§3) Subcutaneous tumor was measured 4, 7, 10, 14, 17, 20, and 23 days after tumor cell transplantation.
Experiment Group (n=5) Control IgG (anti-DNP mAb) • #6-55 • #7 • #10 • #13 • #33
• Day 0: transplantation of GFP+F10-snail+ tumor cells (3×10^5, cells subcutaneously & 2×10^4 cells intravenously) • Day 4: intraperitoneal administration of the antibody (first dose, 10 mg/kg) • Day 7: intraperitoneal administration of the antibody (second dose, 10 mg/kg)

[3] = test system: GFP+F10-snail+ tumor cells; assay: as above; set-up: species or system mouse; remark: listed apart in the source
Protocol: as §2, §3

[4] = test system: C57/BL/6 mouse-derived spleen cells; assay: Treg induction inhibition test using mouse spleen cells stimulated with FSTL1 (Example 28); type: cell-based; conditions: FSTL1 5 ng/ml, antibody 5 μg/mL, 3 days; FIG. 116
Protocol: (§4) In this Example, the experiment was conducted according to Example 17. Specifically, 5 μg/mL of each antibody was added to a system in which C57/BL/6 mouse-derived spleen cells (2×10^6 cells) were stimulated with 5 ng/ml of FSTL1. After culture for 3 days, the percentage (%) of a Foxp3+CTLA4+ cell fraction in CD4+ T cells was analyzed as Treg cells by flow cytometry. Activity was compared with #6-55 used in the preceding studies.

[5] = test system: C57/BL/6 mouse-derived bone marrow cells; assay: MSC induction inhibition test using mouse bone marrow cells, FSTL1 stimulation (Example 27); type: cell-based; conditions: FSTL1 20 ng/mL; antibody 10 μg/mL; 8 days; FIG. 21A
Protocol: (§5) In this Example, the inhibitory activity of the anti-FSTL1 antibody was confirmed in an experimental system of mesenchymal stem cell induction while a FSTL1 inhibitory effect on MSC expansion induced not only by FSTL1 but by Snail+ tumor cells was also evaluated. For specific operation, each antibody (10 μg/mL) was added to systems in which C57/BL/6 mouse-derived bone marrow cells were stimulated with FSTL1 (20 ng/mL) or a culture supernatant of tumor cells. After culture for 8 days under stimulation, cell fraction CD45(−) cells (MSCs) containing MSCs at a high rate and CD45(−)CD146(+)ALCAM(+) cells (sMSCs) increasing in number in association with cancer metastasis were analyzed by flow cytometry in the same way as in Example 14, and the number of cells per culture system was counted. In this Example, mouse immunoglobulin manufactured by BioLegend, Inc. (#401408, Cone MG1-45) was used as a control antibody.

FSTL1 [6] = biological target: T1, FSTL1; assay: Affinity of mouse chimeric antibodies, Biacore T-200 (Example 33); type: binding
Protocol: as §1
First, the exhaustive activity comparison of the obtained antibodies was conducted with the human FSTL1 concentration fixed to 10 μg/ml (Table 33-1, FIG. 28).
Next, the KD values of clone #6-55, #7-34, and #13 presumed to have high affinity in FIG. 28 were calculated with the antigen concentration adjusted to 0 to 20 μg/ml (Table 35-2).

[7] = test system: C57/BL/6 mouse-derived bone marrow cells; assay: MSC induction inhibition test using mouse bone marrow cells stimulated with FSTL1 (Example 27); type: cell-based; conditions: FSTL1 20 ng/mL, antibody 10 μg/mL, 8 days; flow cytometry; FIG. 115A
Protocol: as §5

[8] = test system: GFP+F10-snail+ tumor cells; assay: In vivo drug efficacy of each anti-FSTL1 antibody clone, Snail+ tumor bone metastasis model (Example 32); set-up: species or system mouse
Protocol: as §2, §3

FSTL1 [9] = biological target: T1, FSTL1; assay: MSC induction inhibition test using mouse bone marrow cells stimulated with FSTL1 (Example 27); type: cell-based; set-up: purchased R&D Systems, Inc. 1694-FN-050; conditions: FSTL1 20 ng/mL, antibody 10 μg/mL, 8 days
Protocol: as §5, with “([…],” for “(#401408,”
as §5

FSTL1 [10] = biological target: T1, FSTL1; assay: Treg induction inhibition test using mouse spleen cells stimulated with FSTL1 (Example 28); type: cell-based; set-up: purchased R&D Systems, Inc. 1694-FN-050; conditions: FSTL1 5 ng/ml, antibody 5 μg/mL, 3 days
Protocol: as §4
as §4, with “[…]” for “#6-55”

[11] = test system: C57/BL/6 mouse-derived spleen cells; assay: Treg induction inhibition test using mouse spleen cells (Example 28); type: cell-based; conditions: FSTL1 5 ng/ml; antibody 5 μg/mL; 3 days; FIG. 22
Protocol: as §4

FSTL1 [12] = biological target: T1, FSTL1; assay: Affinity of mouse chimeric antibodies for human FSTL1, Biacore T-200 (Example 33); type: binding
Protocol: as §1
First, the exhaustive activity comparison of the obtained antibodies was conducted with the human FSTL1 concentration fixed to 10 μg/ml (Table 33-1, FIG. 58).
Next, the KD values of clone #6-55, #7-34, and #13 presumed to have high affinity in FIG. 58 were calculated with the antigen concentration adjusted to 0 to 20 μg/ml (Table 35-2).
First, the exhaustive activity comparison of the obtained antibodies was conducted with the human FSTL1 concentration fixed to 10 μg/ml (Table 33-1, FIG. 90).
Next, the KD values of clone #6-55, #7-34, and #13 presumed to have high affinity in FIG. 90 were calculated with the antigen concentration adjusted to 0 to 20 μg/ml (Table 35-2).

B1: #10: chicken-mouse chimeric anti-FSTL1 antibody clone; variable regions SEQ ID NO: 811 (light), 813 (heavy) (antibody, V domains shown)
VH: AVTLDESGGGLQTPGGALSLVCKASGFFFFRIYDMGWVRQAPGKGLEWVAGIDDYGRYTGYGSAVKGRATISRDNGQSTVRLQLNNLRAEDTGTYYCARGAGTGCNSAGCGAYAGSIDAWGHGTEVIVSS
VL: ASTQPSSVSANPGETVKLTCSGGGSRYGWYQQKSPGSAPVTVIYYNDKRPSDIPSRFSGSKSGSTATLTITGVQAEDEAVYFCGGYDGSRDAGIFGAGTTLTVL
modifications: mouse constant regions
FSTL1 [1]
  affinity in an assay system using surface plasmon resonance: strong affinity
[2]; intraperitoneal 10 mg/kg on days 4 and 7, vs control antibody
  mouse survival period (life-prolonging effect): therapeutic effects equal to or higher than those of #6-55
[2]; mouse, in vivo
  comprehensive evaluation of antitumor activity: high antitumor activity exceeding that of #6-55
[3]; intraperitoneal 10 mg/kg on days 4 and 7, FIG. 121
  mouse survival period (life-prolonging effect): therapeutic effects equal to or higher than those of #6-55
[3]; stated as a possibility
  comprehensive evaluation of antitumor activity: high antitumor activity exceeding that of #6-55
[4]
  Treg induction (Foxp3+CTLA4+ fraction in CD4+ T cells): strong suppressive activity equal to or higher than that of #6-55
[5]
  MSC induction inhibitory activity (CD45(−) MSCs, CD45(−)CD146(+)ALCAM(+) sMSCs): high MSC induction inhibitory activity equivalent to or higher than that of #6-55
FSTL1 [6]
  affinity in surface plasmon resonance assay: strong affinity
[7]
  MSC induction inhibitory effect: strong inhibitory effect equivalent to or higher than that of #6-55
[8]; intraperitoneal 10 mg/kg on days 4 and 7, FIG. 27
  mouse survival period (life-prolonging effect): therapeutic effects equal to or higher than those of #6-55
[8]; mouse, in vivo
  comprehensive evaluation of antitumor activity: high antitumor activity exceeding that of #6-55
FSTL1 [9]
  MSC induction inhibitory activity, reproducibility confirmed: high MSC induction inhibitory activity equivalent to or higher than that of #6-55
  inhibitory effect in the MSC induction inhibition test (CD45(−) MSCs and sMSCs, flow cytometry): strong inhibitory effect equivalent to or higher than that of #6-55
FSTL1 [10]
  Treg induction (Foxp3+CTLA4+ fraction in CD4+ T cells): strong suppressive activity equal to or higher than that of #6-55
[11]
  Treg induction (Foxp3+CTLA4+ cell fraction in CD4+ T cells): strong suppressive activity equal to or higher than that of #6-55
FSTL1 [12]
  affinity in an assay system using surface plasmon resonance: strong affinity
